Reference: PMC3463355

How the values were obtained:
[1] = molecular target: N-parp (Zn1-Zn3 and BRCT) (UniProt P09874); test: HI-FI FRET
[2] = molecular target: PARP-1 (full-length) V762A (human) (UniProt P09874); test: HI-FI FRET
[3] = molecular target: N-parp (N-terminal half of PARP-1, amino acids 1-486) (human) (UniProt P09874); test: FRET or BRET
[4] = molecular target: Nuc165, unlabeled mononucleosome on 165-bp 601 DNA; test: SEC-MALS
[5] = molecular target: Nuc207, mononucleosome on 207-bp 601 DNA as used for SEC-MALS; test: SEC-MALS
[6] = molecular target: nucleosome (of the N-parp/nucleosome complexes, data not shown); test: SEC-MALS
[7] = molecular target: full-length human PARP-1 [change] (human) (UniProt P09874); test: FRET or BRET
full-length human PARP-1 [change] (human), sequence (P09874 whole entry V762A): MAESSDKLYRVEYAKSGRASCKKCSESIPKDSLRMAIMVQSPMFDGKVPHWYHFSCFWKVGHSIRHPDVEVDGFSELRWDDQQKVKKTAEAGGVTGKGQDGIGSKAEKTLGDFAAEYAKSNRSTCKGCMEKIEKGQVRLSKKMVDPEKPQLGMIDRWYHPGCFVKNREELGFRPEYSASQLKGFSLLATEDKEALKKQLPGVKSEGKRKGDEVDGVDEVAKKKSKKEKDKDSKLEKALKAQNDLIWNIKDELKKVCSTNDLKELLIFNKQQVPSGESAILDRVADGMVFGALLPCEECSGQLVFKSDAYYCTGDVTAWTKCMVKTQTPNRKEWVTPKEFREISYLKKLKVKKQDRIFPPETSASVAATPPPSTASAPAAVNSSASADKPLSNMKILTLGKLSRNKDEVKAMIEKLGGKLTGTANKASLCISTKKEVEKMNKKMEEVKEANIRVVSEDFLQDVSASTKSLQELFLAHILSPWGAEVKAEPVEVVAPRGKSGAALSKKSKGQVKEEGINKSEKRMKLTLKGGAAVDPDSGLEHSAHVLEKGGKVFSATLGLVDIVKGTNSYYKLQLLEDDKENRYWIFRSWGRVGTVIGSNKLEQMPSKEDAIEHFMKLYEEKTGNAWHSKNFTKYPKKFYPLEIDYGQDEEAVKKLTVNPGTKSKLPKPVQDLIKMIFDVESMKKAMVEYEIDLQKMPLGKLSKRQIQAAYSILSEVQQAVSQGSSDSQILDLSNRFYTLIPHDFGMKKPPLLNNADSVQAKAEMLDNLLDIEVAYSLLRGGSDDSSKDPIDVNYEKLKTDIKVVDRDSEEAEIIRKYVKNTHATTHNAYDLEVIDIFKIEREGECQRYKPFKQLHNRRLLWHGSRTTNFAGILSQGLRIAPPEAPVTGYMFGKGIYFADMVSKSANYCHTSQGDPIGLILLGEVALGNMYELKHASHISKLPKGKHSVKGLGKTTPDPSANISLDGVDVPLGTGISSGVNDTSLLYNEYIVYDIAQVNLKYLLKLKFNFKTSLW

N-parp (N-terminal half of PARP-1, amino acids 1-486) (human), sequence (P09874 1-486): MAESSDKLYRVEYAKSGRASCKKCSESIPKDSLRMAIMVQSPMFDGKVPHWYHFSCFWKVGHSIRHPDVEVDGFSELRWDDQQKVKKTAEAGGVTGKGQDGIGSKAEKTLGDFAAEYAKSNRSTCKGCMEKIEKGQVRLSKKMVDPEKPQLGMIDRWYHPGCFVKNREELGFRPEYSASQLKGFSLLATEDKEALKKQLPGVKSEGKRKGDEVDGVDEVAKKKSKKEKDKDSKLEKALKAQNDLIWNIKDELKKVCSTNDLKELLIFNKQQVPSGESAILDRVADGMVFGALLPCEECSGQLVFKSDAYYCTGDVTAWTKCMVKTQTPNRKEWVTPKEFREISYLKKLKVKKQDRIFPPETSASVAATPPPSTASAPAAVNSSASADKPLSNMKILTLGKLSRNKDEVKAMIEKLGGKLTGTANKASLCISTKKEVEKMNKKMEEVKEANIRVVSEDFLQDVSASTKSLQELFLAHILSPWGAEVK
N-parp (Zn1-Zn3 and BRCT), sequence (P09874 1-486): as above
PARP-1 (full-length) V762A (human), sequence (P09874 whole entry V762A, the tested form may be a part): as the sequence (P09874 whole entry V762A) above
N-parp (N-terminal half of PARP-1, amino acids 1-486), sequence (P09874 1-486): as the sequence (P09874 1-486) above

Row | Kd [3] | Substance | Kd [1] | Kd [2] | also measured
1 | – | Nuc165 | 57.8 nM | 2.2 nM | –
2 | 48.8 nM | Nuc207, mononucleosome on 207-bp 601 DNA, labeled with ATTO 647N at histone H4 [change] (complex) | – | – | –
3 | – | full-length human PARP-1 [change] (from UniProt P09874) (enzyme) | – | – | stoichiometry N [4]: 1; stoichiometry N [5]: 1
4 | – | N-parp (N-terminal half of PARP-1, amino acids 1-486) (from UniProt P09874 1-486) (domain or fragment) | – | – | stoichiometry N [6]: 1
5 | – | Nuc207 | 48.8 nM | 1 nM | –
6 | > 500 nM | Nuc147, mononucleosome on 147-bp 601 DNA, labeled with ATTO 647N at histone H4 [change] (complex) | – | – | Kd [7]: > 500 nM
7 | 57.8 nM | Nuc165, mononucleosome on 165-bp 601 DNA, labeled with ATTO 647N at histone H4 [change] (complex) | – | – | Kd [7]: 2.2 nM
8 | – | Nuc178 | 238 nM | 84.6 nM | –
